This is an account of results in a protein production outcome set (Wang et al. 2014).

This data set is described as follows: label from the status in PepcDB records.
With “MDLALAQVDSTVSGLYDALDLIGVLLNGIIGGTIARQRGYDIIGFLFLALFSALGGGMIRDMLIQQGTVAAIDNQIYLALAFSGALIAMAVNFKGRVWELFKVHGDAIVLGVWAVTGSVKAMNAGVAPLPSIFMGVLTAVGGGMVRDVATGQTPTIFGGGTLYAVPATLSATSMVIFHSFDQVILGMIISPFLGIALAVTAYWCGWVIPVNTDFAPVNLTVSQLRAMLSKAERKDKDQK”, the protein production result is on record as “failed”.

As to “MPHSTTEPRRDMPDALISIVIPCRNEAANLPLLIDEIEAAMAGRHFELIIVNDGSTDETAAVLTEQAALRSFPVRELRHQKSAGQSLSVRSGAWAARGGIVATIDGDGQNDPQYIPVLVDALRQAGPDFGAAQGQRLKRRDSKVKQLASRFANWLRNAILHDETRDTGCGLKAVHTEILRKLPFFDGTHRFVPALVIQEGYRVVHCDVVDRSRRHGKSNYGIFDRGLQGALDLGGVWWLRRRRRRMPKVEEIKRV”, the protein production entry is “failed”.

Take “MAKELYVGHMSYEATEDDLRRLFSVAGTVTSVHIITDPETGRSKGCGYVRMLTEEEAKEAIETLDGALLRNRVITVSVARPQKQATRPAPRRGKPGPGGRPGKKRPS”: the protein production result is on record as “failed”.

Regarding “MNTLECLAVAVALAMDAFAVAIATGIRLREVSPRQTFRLAFHFGLFQALMPVAGWTLGLTVRGYIEQWDHWLAFGLLLYIGVRMMREAFEETEENDDRCDPTRGLTLIMLAVATSIDALAVGLSLSVLGIDIVTPAIVIGVVCLLFTATGLHLGRMLSRAESLGRRAALAGGVVLIGIGLRILYEHGVFDTAATLARSVLG”, the protein production entry is reported as “failed”.

“SADQIRQSVRHSLKDILMKRLTDSNLKVPEEKAAKVATKIEKELFSFFRDTDAKYKNKYRSLMFNLKDPKNNILFKKVLKGEVTPDHLIRMSPEELASKELAAWRRR”: the protein production result was “not failed”.

On to “MATIIFAGRSNVGKSTLIYRLTGKKVRRGKRPGVTRKIIEIEWKNHKIIDMPGFGFMMGLPKEVQERIKDEIVHFIEDNAKNIDVAVLVVDGKAAPEIIKRWEKRGEIPIDVEFYQFLRELDIPTIVAVNKLDKIKNVQEVINFLAEKFEVPLSEIDKVFIPISAKFGDNIERLKNRIFEVIRERQGRRV”, for which the protein production result is “not failed”.

“MLRPAGLWRLCRRPWAARVPAENLGRREVTSGVSPRGSTSPRTLNIFDRDLKRKQKNWAARQPEPTKFDYLKEEVGSRIADRVYDIPRNFPLALDLGCGRGYIAQYLNKETIGKFFQAAIAENALKNSSETEIPTVSVLADEEFLPFKENTFDLVVSSLSLHWVNDLPRALEQIHYILKPDGVFIGAMFGGDTLYELRCSLQLAETEREGGFSPHISPFTAVNDLGHLLGRAGFNTLTVDTDEIQVNYPGMFELMEDLQGMGESNCAWNRKALLHRDTMLAAAAVYREMYRNEDGSVPATYQIYYMIGWKYHESQARPAERGSATVSFGELGKINNLMPPGKKSQ”: the protein production result is “failed”.

In the case of “MLIIFASGFALRAGTVTVAGVYSEAHYQPLMYDMDSYYNLRLASNLLNEGELSEGGWDRYSYYPPGVPLDYPPLLPHLTVTLYLLFTWLLPGLTDTAFWLPAIIAPLAGVAVFAAARSLDCDDVSATTAGLLATAAPFYFMRTIPGFYDTDMFNLVLPLAILLTLHLSLRDGDWRMAVLSGALMGVFAAAWNGWQLIYSIMALSVILHSLLYRRREPLIFLITSTLLIVLMDPRAIPSIPVGLMKIPVARADPFPDPYANITELQRPGFDDVLMALGPGLLLAGLAGFRSLFRDWRDSMVLPVIILWTLTGAASLLWGIRFSELLTAPLLITSALFLADLGTASRVPPGFRRKLHVAVAIMVVLPSLIISTGQYSALHPRVDDGLLDAADYIRAKTPPDTVVISNWVHGHFFAFMARRPVNFDGRLAYIETAAKRGPGYPLDPRIPGVYREYWHDPGPNDHGPHLADEILSMLASSGDEAYLEVLNATGDPAGSAVILGDVLAVDGSSRAEYLQDRGLDPVASGRVASTLSRRSGYVLVTCDRLIDKGYWILYYGNWNFTGKTRKPVYSTGSIVQGWPLRTSDGLLWDGERISFNGLRVSELYLVDGGVRKVEGDPQGGLVAFVLYDRNRTVVLERGYEDSMFARLVLLGDGGGVFRAVMRSRDVTVWEPIRDWNT”, the protein production result is recorded as “failed”.

Regarding “MPLVLDLARPVSEEELRRLSELNPGYQWERSPEGRLWVSPTGGESGRRSLQLAYQLARWNEERGLGVVFDSSTGFKFPDGSILSPDAAFVERGAWEALSEAEREGFPPLAPKAVFEVRSASQDPEELRAKMGIYLRNGVLLGVLVDPYARAVEVFRPGKPPLRLEGVERVSLDPELPGFALSLPPLW”, the protein production result is “not failed”.

Take “MAKLAGQKVRIGGWVKTGRQQGKGTFAFLEVNDGSCPANLQVMVDSSLYDLSRLVATGTCVTVDGVLKIPPEGKGLKQSIELSVETVIAVGTVDP”: the protein production entry was “not failed”.

With “MKGILFAVFAGIFITLQGTFNAKLSSHIGIWSTSIITHLIGFIIATTVFLLKKEEKVTDLKSVKKIYLVAGAFGGFIICAETMAIYSLGVTLTAGTLMAAQLLTATVIEMKGLFHIKKIQMERYHIVGTIVMIIGIVVFNM”, the protein production result was “failed”.

In the case of “MLQPGGTPTKIVCLTQVVTADDLRDDAEYADIMEDMSQEGGKFGNLVNVVIPRPNPDHDPTPGVGKVFLEYADVDGSSKARSGMNGRKFGGNQVVAVYYPEDKYAQGDYED”, the protein production entry was “failed”.

Turning to “MESVKTGKTNKVGKNTEMANTKANKETHFKQVSAITNIIRSVGGFFTKIAKRVRGLVKKHPKKSSAALVVLTHIACKKAKELDDKVQDKSKQAEKENQINWWKYSGLTIAASLLLAACSAGDTDKQIELEQEKKEAENARDRANKSGIELEQERQKTNKSGIELANSQIKAEQERQKTEQEKQKANKSAIELEQQKQKTINTQRDLIKEQKDFIKETEQNCQENHNQFFIKKLGIKGGIAIEVEAECKTPKPAKTNQTPIQPKHLPNSKQPHSQRGSKAQEFIAYLQKELEFLPYSQKAIAKQVNFYKPSSIAYLELDPRDFKVTEEWQKENLKIRSKAQAKMLEMRDLKPDPQAHLPTSQSLLFVQKIFADVNKEIEAVANTEKKAEKAGYGYSKRM”, the protein production result is on record as “failed”.

Turning to “MKKFVCTVCGYIHEGDAAPAQCPVCKVGADKFEEMKGEMVWADEHRIGVAQGVDAEIIEGLRANFTGECTEVGMYLAMSRQADREGYPEVAEAYKRIAFEEAEHAAKFAELLGEVVVADTKENLRVRVDAEYGATDGKLKLAKRAKELGLDAIHDTVHEMCKDEARHGKAFLGLLNRHFGKLEHHHHHH”, the protein production result was “not failed”.

For “MNVVIVRYGEIGTKSRQTRSWFEKILMNNIREALVTEEVPYKEIFSRHGRIIVKTNSPKEAANVLVRVFGIVSISPAMEVEASLEKINRTALLMFRKKAKEVGKERPKFRVTARRITKEFPLDSLEIQAKVGEYILNNENCEVDLKNYDIEIGIEIMQGKAYIYTEKIKGWGGLPIGTEGRMIGILHDELSALAIFLMMKRGVEVIPVYIGKDDKNLEKVRSLWNLLKRYSYGSKGFLVVAESFDRVLKLIRDFGVKGVIKGLRPNDLNSEVSEITEDFKMFPVPVYYPLIALPEEYIKSVKERLGL”, the protein production entry is “not failed”.

In the case of “MRIIKFPEQISEDIIHYTFLDDIISYNCEKCRGSCCHVNNSLLLDAKTASFLKRTYLKDFIVSDDSVSLLSCGKKCWFHSELGCTINDLGLNKPLTCELYPFHIKKIQNFYIVSFTPCPTFQLNLGEGQRYKDIEDVVLRYIKTGVPVFSPSLHVSEERLKYEIEYQNNFKNTLSEYYRTKTADGTTEFKEYEKWYIYYLDFRWGSIPLSYTSSQANQFWNLYKRVCEDVYKKISYIRTDNIYFIIANQFNKTISKHFQLNFIDKELEHHHHHH”, the protein production entry was “not failed”.

Regarding “MAELKSLAKDTAIYGASSIIGKFLNYFLVPIYTFSLPAASGGYGVITKMYAIVALLLVVLTFGMETGFFRFANKGDDDPKKVYSVSLLMVGGVSLLFLLLCLVFLNPIAGLMGYSEHPWYLGMMLIVLAMDAIQAIPFAYLRYKKRPIKFAGLKLLFIFVSILLNILYFVVMKGDDVGVAFLINLICSFVVMLGLIPEFREFRYCPDRLLMKRMLYYSFPILILGVAGIVNQVGDKIIFPFVYPDKVEADVQLGIYSAATKIAMIMAMITQAFRFAYEPFVFGKSKDKDNKRIYAQAMKFFIIFTLLAFLAVMFYLDILRYIIAEDYWEGLRVVPIVMIAEMFMGIYFNLSFWYKLTDDTRWGAYFSIIACLTVVLMNIFLIPVYGYVACAWAGFTGYAIAMLLSYFVGQKKYPIAYDLRGIGCYVGLAIILYLIGEWIPIHNTVLLLAFRTVLLLLFIAYIIKRDLPLSQIPVINRIIKKK”, the protein production entry is “not failed”.
